From paper PMC9643425, “Structural model for ligand binding and channel opening of an insect gustatory receptor” (The Journal of Biological Chemistry, 2022) come the findings set out here.

One may read the stoichiometry N as the number of molecules, sites or subunits per partner or assembly.

Where “and” joins values, the source holds several entries; their conditions need not be identical. Identical values can stand only once.

The target of one test is T1, BmGr9 (Bombyx mori, UniProt B3GTD7, I440C).
T1 construct: gene Gr9; full-length
T1 sequence (B3GTD7 1-449 I440C): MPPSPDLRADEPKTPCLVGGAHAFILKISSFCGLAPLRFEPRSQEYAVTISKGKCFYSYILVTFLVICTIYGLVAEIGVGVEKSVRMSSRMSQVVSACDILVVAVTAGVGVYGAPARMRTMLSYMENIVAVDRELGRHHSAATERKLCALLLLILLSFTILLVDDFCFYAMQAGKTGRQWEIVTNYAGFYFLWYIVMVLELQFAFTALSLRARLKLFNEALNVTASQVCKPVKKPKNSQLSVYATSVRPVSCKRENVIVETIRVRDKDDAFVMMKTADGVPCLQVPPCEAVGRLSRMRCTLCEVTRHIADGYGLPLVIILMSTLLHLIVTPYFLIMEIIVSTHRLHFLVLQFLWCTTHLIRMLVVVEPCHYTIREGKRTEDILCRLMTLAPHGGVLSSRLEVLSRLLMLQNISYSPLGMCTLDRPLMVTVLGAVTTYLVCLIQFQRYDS
As to the kind of experiment: two-electrode voltage clamp in Xenopus oocytes, […] MTSET, cysteine modification. It is filed as cell-based.

In test [1] the target is BmGr9 silkworm gustatory receptor (Bombyx mori (silkworm)). Put plainly: cross-linking; HEK293T cells expressing BmGr9 incubated with various concentrations of disuccinimidyl suberate (DSS) at 37 °C for 15 min; lysed in 0.1% RIPA buffer; SDS-PAGE with 5 M urea; Western blot with anti-BmGr9 antibody. Background: In western blotting, separated proteins are transferred to a membrane and probed.

Test [2] addresses meGFP-BmGr9 (Bombyx mori (silkworm)). Put plainly: single-molecule imaging, counting of photobleaching steps (TIRF microscopy); meGFP-BmGr9 on the plasma membrane of Xenopus oocytes; bleaching steps at single spots (n = 569) fitted with binomial distributions of tetramer, pentamer and hexamer models.

As to `C[N+](C)(C)CCSS(C)(=O)=O` [MTSET, 2-(trimethylammonium)ethyl methanethiosulfonate, bromide], at BmGr9, the “two-electrode voltage clamp in Xenopus oocytes, 2.5 mM MTSET, cysteine modificat” value is recorded as “whereas the response of I440C was markedly inhibited by MTSET application”. Turning to BmGr9 silkworm gustatory receptor, the stoichiometry N in test [1] was 2 and 4. Regarding meGFP-BmGr9 (receptor), the stoichiometry N in test [2] amounted to 4.
